Results from patent US20250195685A1 (CAPSTAN THERAPEUTICS, published 2025).

Columns and labels:
[1] = molecular target: T1, human CD8 on cells (CD8-overexpressing HEK293T cells, SupT1, HPB-ALL, human T cells, transfected HEK293 of … (human, UniProt P01732 22-235)); assay: flow cytometry on SupT1 cells; SupT1 cells
T1 construct: whole, on cells; also called cell surface CD8
Protocol: To obtain the results shown in FIG. 6, SupT1 (ATCC #CRL-1942) and HPB-ALL (DSMZ; ACC-483) were cultured in RPMI medium supplemented with 10% Fetal Bovine Serum (#97068-085; Avantor). To determine EC₅₀ values of cell binding from the anti-CD8α antibody, 2×10⁵ total cells were transferred to a V bottom 96-well culture plate (Corning). Cells were washed twice with Cell Staining buffer (#420201, Biolegend). The anti-CD8α antibody was diluted in four-fold antibody titration series from 60 μg/mL to […] into Cell Staining buffer. Cells were stained with each diluted antibody solution for 30 minutes on ice. Cells were then washed three times with Cell Staining buffer and primary antibody binding was detected by staining with anti-human Fc BV421 conjugate antibody (#410704, Biolegend) at 1:200 dilution for 30 minutes on ice. eFluor 780 Fixable Viability dye (eBioscience) at a 1:4000 dilution were also included in the detection antibody solutions. […] Flow cytometry data was analyzed by Flowjo 10 (Becton, Dickinson & Company) to measure the geometric median fluorescence intensity (gMFI) of the on-cell binding from each antibody. The gMFI values were normalized with the gMFI measured in the sample stained with only the secondary detection antibody and plotted against the concentration of the added antibodies. […]

[2] = molecular target: T2, insulin (Sigma); assay: polyreactive ELISA, insulin coated, 100 nM antibody
T2 construct: Antigen of the polyreactivity ELISA
T2 sequence (P01308 25-54, chain 1 of 2): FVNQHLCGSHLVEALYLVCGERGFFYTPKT
T2 sequence (P01308 90-110, chain 2 of 2): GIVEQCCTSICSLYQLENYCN
Protocol: Insulin ([…]; Sigma) and dsDNA ([…]; Sigma) were coated onto 96-well high-binding ELISA microplates (Corning) at 50 μL per well overnight at 4° C. Plates were blocked with PBS with 0.5% BSA (blocking buffer) at room temperature (RT) for 1 h, followed by three washes with PBST (PBS with 0.1% Tween-20). 50 μL of 100 nM antibody in blocking buffer was added to each well and incubated at RT for 1 h, followed by six washes with 100 μL of PBS. 50 μL of diluted anti-human IgG-horseradish peroxidase (HRP) conjugate (Jackson ImmunoResearch) was added to the wells and incubated for 1 h followed by another six washes. Finally, 50 μL of 3, 3′, 5, 5′-Tetramethylbenzidine (TMB) substrate (Fisher Scientific) was added to each well to develop the detection signal. The reactions were stopped by adding 50 μL of 2 M sulfuric acid to each well. The absorbance was measured at 450 nm using a multimode microplate reader. Ustekinumab as the control antibody with low polyreactivity and bococizumab as a highly polyreactive antibody control were also included in the polyreactive ELISA assessment.
The first assessment tested for low non-specific binding to dsDNA and insulin by ELISA. […] Thus, by this standard, none of the tested antibodies were polyreactive.

[3] = molecular target: T3, human CD8αα homodimer, recombinant protein (Acro Biosystems) (human, UniProt P01732 22-182); assay: BLI binding kinetic analysis, whole antibody, sample stressed at pH 8.5, 40 °C, 3 days
T3 construct: also called CD8αα antigen; biotinylated CD8α recombinant protein (CDA-H82E3)
T3 sequence (P01732 22-182 limits assumed): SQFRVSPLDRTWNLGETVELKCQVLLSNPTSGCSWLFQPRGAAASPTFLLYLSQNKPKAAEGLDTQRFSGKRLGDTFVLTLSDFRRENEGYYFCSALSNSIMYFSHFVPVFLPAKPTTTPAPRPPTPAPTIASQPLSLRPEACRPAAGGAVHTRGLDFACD

T1 sequence (P01732 22-235): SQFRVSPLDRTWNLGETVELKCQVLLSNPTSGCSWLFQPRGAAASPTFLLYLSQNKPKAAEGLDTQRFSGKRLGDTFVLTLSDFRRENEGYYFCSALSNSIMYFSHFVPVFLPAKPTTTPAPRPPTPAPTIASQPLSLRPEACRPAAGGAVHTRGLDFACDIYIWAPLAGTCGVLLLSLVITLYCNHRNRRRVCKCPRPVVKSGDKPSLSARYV

B1: CBD1033 whole antibody, human IgG1 with Fc-silencing mutations L234A, L235A and P329A (CBD1033-hIgG1-LALAPA) (antibody, V domains shown)
VH: QVQLVQSGAEVKKPGASVKVSCKASRYTFTDYNLHWVRQAPGQGLEWMGFIYPYNGGTGYAQKFQGRVTMTVDTSTSTAYMELSSLRSEDTAVYYCARDHRYNEGVSFDYWGQGTTVTVSS
VL: DIQLTQSPSSLSASVGDRATITCRASESVDGFGNSFMNWYQQKPGKAPKLLIYLASNLESGVPSRFSGSGSGTDFTLTISSVQPEDFATYYCQQNNEDPYTFGQGTKLEIKR
notes: On tLNPs the antibody was SATA-modified or AJICAP-thiolated (CBD1033.29) and conjugated to the LNP; also called CBD1033.3; CBD1033 IgG1
For B1, which EC50 [1] is on record?
The EC50 was 0.312 µg/mL.

And the “polyreactivity ELISA score” value [2]?
Its value is 1.

What about the Kd [3] of the same binder?
The Kd was 2 nM.

What about the koff [3] of the same binder?
Its koff is 0.00314 s⁻¹.

And the kon [3]?
Its kon is 1.57e+06 M⁻¹ s⁻¹.
